The values that follow come from patent CN116745314A.

The test concerns the target spike glycoprotein of live SARS-CoV-2 (isolate USA-WA1/2020) (SARS-CoV-2) (UniProt P0DTC2). Kind of test: cell-based or functional assay.

The substance S2D106-LS (antibody) showed an EC50 (live SARS-CoV-2-luc neutralisation, MOI 0.1, 6 h) of 6 ng/mL; an EC90 (live SARS-CoV-2-luc neutralisation, MOI 0.1, 6 h) of 22 ng/mL; an IC50 (live SARS-CoV-2-luc neutralisation, MOI 0.1, 6 h) of 4.49 ng/mL.
